Patent US20100035825A1

Experiments:
[1] = target: purified recombinant procaspase 1 (human, Alexis Biochemicals) (human) (UniProt P29466); assay: co-immunoprecipitation of purified recombinant proteins (C/EBPβ peptides 200 µM), immunoblot, densitometry; reference C/EBPβ 216-253-HA-Ala217
[2] = target: purified recombinant procaspase 8 (human, Alexis Biochemicals) (human) (UniProt Q14790); assay: as above
[3] = target: purified recombinant procaspase 1 (human, Alexis Biochemicals) (human) (UniProt P29466); assay: co-immunoprecipitation of purified recombinant proteins (C/EBPβ peptides 200 µM), immunoblot, densitometry; reference C/EBPβ-HA-Ala217

Chain of purified recombinant procaspase 8 (human, Alexis Biochemicals) (human) (Q14790 217-479 limits assumed): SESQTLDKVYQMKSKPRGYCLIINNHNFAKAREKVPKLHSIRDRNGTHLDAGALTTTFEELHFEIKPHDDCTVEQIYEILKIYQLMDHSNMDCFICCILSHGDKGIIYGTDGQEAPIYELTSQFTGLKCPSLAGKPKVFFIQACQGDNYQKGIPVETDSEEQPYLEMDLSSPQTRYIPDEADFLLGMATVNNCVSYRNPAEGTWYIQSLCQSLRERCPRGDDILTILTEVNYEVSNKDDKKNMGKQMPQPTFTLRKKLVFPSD

Substance | fold more co-immunoprecipitated than the Ala^217 peptides (densitometry) [1] [fold] | fold more co-immunoprecipitated than the Ala^217 peptides (densitometry) [2] [fold] | fold more co-immunoprecipitated than the Ala^217 peptides (densitometry) [3] [fold]
C/EBPβ 216-253-HA-Glu^217 | 7 | 12 | –
C/EBPβ-HA-Glu^217 (from UniProt P28033 1-296) | – | – | 7
